Biological target: Recombinant human IL-21 (human, UniProt Q9HBE4 25-162)
Test: cell-based or functional assay

Recombinant human IL-21, sequence (Q9HBE4 25-162 limits assumed): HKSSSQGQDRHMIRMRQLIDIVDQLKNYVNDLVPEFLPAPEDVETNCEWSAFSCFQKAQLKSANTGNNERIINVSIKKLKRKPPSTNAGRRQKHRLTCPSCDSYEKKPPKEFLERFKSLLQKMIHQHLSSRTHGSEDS

B1: Human anti-human IL-21 monoclonal antibody clone 366.552.11 (antibody, V domains shown)
VH: QVQLQESGPGLVKPSETLSLTCTVSGGSISSDFWGWIRQPPGKGLEWIGYISSRGSTNYNPSLKRRVTISVDTSRNQFSLKLSSVTAADTAVYYCARSAGVTDFDFWGQGTLVTVSS
VL: DIQMTQSPSSVSASVGDRVTITCRASQGISSWLAWYQHKPGKAPKLLIYVASSLQSGVPSRFSGSGSGTDFTLTISSLQPEDFATYYCQQANSFPLTFGGGTKVEIK
% IgD-low, CD138+ Plasma Cells at antagonist:ligand ratio 0.16:1 (actual 0.22:1): 50.3%
% IgD-low, CD138+ Plasma Cells at antagonist:ligand ratio 0.6:1 (actual 0.9:1): 44.8%
% IgD-low, CD138+ Plasma Cells at antagonist:ligand ratio 2.5:1 (actual 3.6:1): 26.4%
% IgD-low, CD138+ Plasma Cells at antagonist:ligand ratio 10:1 (actual 14.4:1): 15.4%

B2: Human anti-human IL-21 monoclonal antibody clone 366.328.10 (antibody, V domains shown)
VH: EVQLVESGGGLVKPGGSLRLSCAASGFIFSSYSMNWVRQAPGKGLEWVSSITSGSYYIHYADSVKGRFTISRDNAKNSLYLQMNSLRAEDTAVYYCVRERGWGYYGMDVWGQGTTVTVSS
VL: AIQLTQSPSSLSASVGDRVTITCRASQDIDSALAWYQQKPGKAPKILIHDASSLESGVPSRFSGSGSGTDFTLTISSLQPEDFATYYCQQFNSYPYTFGQGTKLEIK
% IgD-low, CD138+ Plasma Cells at antagonist:ligand ratio 0.16:1: 52.1%
% IgD-low, CD138+ Plasma Cells at antagonist:ligand ratio 0.6:1: 41.4%
% IgD-low, CD138+ Plasma Cells at antagonist:ligand ratio 2.5:1: 20.2%
% IgD-low, CD138+ Plasma Cells at antagonist:ligand ratio 10:1: 15.4%

B3: Heterodimeric IL-21 soluble receptor IL-21R/γc-Fc (Fc fusion, not shown: a dimerising Fc or GST)
chain 1: not shown
chain 2: LNTTILTPNGNEDTTADFFLTTMPTDSLSVSTLPLPEVQCFVFNVEYMNCTWNSSSEPQPTNLTLHYWYKNSDNDKVQKCSHYLFSEEITSGCQLQKKEIHLYQTFVVQLQDPREPRRQATQMLKLQNLVIPWAPENLTLHKLSESQLELNWNNRFLNHCLEHLVQYRTDWDHSWTEQSVDYRHKFSLPSVDGQKRYTFRVRSRFNPLCGSAQHWSEWSHPIHWGSNTSKENPFLFALEA
% IgD-low, CD138+ Plasma Cells at antagonist:ligand ratio 0.16:1: 66.7%
% IgD-low, CD138+ Plasma Cells at antagonist:ligand ratio 0.6:1: 54.2%
% IgD-low, CD138+ Plasma Cells at antagonist:ligand ratio 2.5:1: 41.7%
% IgD-low, CD138+ Plasma Cells at antagonist:ligand ratio 10:1: 23.4%
